Results published in patent US20190055314A1 (ADAGENE, published 2019).
Numbering of substitutions follows the chain as printed. Like-named read-outs stand apart in the source and are kept apart here. One block for each binder: values may come before it.

Columns and labels:
[1] = target: T1, CD95; assay: flow cytometry, HEK293F cells expressing the receptor [Cont.]
T1 chain: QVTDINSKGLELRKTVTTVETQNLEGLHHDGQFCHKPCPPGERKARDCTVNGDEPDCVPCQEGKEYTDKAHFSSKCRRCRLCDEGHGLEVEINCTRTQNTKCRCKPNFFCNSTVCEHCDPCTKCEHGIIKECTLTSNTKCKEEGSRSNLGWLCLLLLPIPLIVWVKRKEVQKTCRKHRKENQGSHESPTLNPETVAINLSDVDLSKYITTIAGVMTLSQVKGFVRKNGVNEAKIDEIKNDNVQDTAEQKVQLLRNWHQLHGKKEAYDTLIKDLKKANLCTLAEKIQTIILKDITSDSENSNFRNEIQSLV
Method: (§1) The selectivity of antibodies for CD137 was evaluated using flow cytometry analysis of their binding ability to members of TNFR superfamily. The TNFRSF receptors including CD137, OX40, CD40, GITR and CD27 were transiently overexpressed on the surface of HEK293F cells. Transfected cells were washed in pre-chilled staining buffer (PBS supplemented with 2% FBS), then incubated with 100 nM test antibodies for 1 hr on ice. […] Samples were washed once with staining buffer prior to analysis by flow cytometry.

[2] = target: T2, CD120a; assay: as above
T2 chain: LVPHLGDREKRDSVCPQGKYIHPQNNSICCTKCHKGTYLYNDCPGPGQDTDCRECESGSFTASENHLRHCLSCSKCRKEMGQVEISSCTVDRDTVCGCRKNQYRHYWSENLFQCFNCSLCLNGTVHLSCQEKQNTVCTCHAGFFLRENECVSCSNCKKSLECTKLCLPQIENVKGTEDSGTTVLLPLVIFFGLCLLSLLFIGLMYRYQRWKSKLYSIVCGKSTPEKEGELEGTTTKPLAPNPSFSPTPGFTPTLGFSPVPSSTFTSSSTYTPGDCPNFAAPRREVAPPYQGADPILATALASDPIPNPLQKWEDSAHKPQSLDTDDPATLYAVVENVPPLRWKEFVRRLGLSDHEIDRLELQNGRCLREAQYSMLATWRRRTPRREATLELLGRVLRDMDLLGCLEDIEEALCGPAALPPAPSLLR
Method: as §1

[3] = target: T3, full-length mouse CD137 on the cell surface (mouse, UniProt P20334 24-178); assay: flow cytometry, HEK293F cells expressing CD137 [Cont.]
T3 sequence: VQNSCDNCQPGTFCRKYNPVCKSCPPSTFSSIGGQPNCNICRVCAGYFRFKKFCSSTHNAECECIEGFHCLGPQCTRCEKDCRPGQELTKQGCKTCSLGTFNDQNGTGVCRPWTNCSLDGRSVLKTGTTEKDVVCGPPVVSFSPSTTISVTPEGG
Method: (§2) The affinity of antibodies were also assessed against human, monkey and mouse CD137 that are transiently expressed on the surface of HEK293F cells. Briefly, HEK293F cells were transfected with a plasmid expressing full-length human, monkey or mouse CD137 from a bicistronic IRES vector, EGFP was used to identify the transfected cells. After 48 hrs, the transfected cells were harvested and then washed once with cold FACS buffer (PBS supplemented with 1% BSA). […] The cells were washed once prior to analysis by flow cytometry (Beckman® CytoFlex).

[4] = target: T4, rat CD137 on the cell surface (rat, UniProt Q4W8J3 24-258); assay: as above
T4 sequence: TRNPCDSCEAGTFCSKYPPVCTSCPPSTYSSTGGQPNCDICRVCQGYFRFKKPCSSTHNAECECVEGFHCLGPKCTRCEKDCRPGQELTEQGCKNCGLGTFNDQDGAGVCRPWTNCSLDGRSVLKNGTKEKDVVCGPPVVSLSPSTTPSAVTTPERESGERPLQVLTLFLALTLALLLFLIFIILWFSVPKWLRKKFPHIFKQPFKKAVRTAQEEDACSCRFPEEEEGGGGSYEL
Method: as §2

[5] = target: T5, mouse CD137 fused with human FC fragment (mouse, UniProt P20334 24-178, limits assumed); assay: ELISA, coated CD137-Fc
T5 construct: also called mouse CD137-Fc; not shown: human Fc fragment
T5 sequence: T3 sequence

[6] = target: T1, CD95; assay: flow cytometry, HEK293F cells expressing the receptor [Cont.]
Method: as §1

[7] = target: T2, CD120a; assay: as above
Method: as §1

[8] = target: T6, CD40 overexpressed on HEK293F cells (UniProt P25942 21-277, limits assumed); assay: flow cytometry, HEK293F cells expressing the receptor, antibody 100 nM
T6 construct: whole, on cells
Method: as §1

[9] = target: T7, OX40 overexpressed on HEK293F cells (UniProt P43489 29-277, limits assumed); assay: as above
T7 construct: whole, on cells
T7 sequence (looked up): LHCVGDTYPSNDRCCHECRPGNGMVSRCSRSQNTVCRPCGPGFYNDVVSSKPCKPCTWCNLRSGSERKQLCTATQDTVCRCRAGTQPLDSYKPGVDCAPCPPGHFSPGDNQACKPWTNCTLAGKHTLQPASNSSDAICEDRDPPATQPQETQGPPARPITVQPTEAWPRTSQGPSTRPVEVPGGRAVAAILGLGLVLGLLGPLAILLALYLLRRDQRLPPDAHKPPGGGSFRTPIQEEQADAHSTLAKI
Method: as §1

[10] = target: T8, CD27 overexpressed on HEK293F cells (UniProt P26842 20-260, limits assumed); assay: flow cytometry, HEK293F cells expressing the receptor
T8 construct: whole, on cells
T8 sequence (looked up): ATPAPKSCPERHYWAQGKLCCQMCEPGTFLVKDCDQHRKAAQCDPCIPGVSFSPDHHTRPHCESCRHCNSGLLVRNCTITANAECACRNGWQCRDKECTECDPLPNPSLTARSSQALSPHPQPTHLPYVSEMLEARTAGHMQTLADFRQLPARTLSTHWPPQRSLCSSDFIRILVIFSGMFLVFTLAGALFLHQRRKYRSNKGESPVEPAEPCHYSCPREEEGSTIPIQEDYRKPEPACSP
Method: as §1

[11] = target: T6, CD40 overexpressed on HEK293F cells; assay: as above
Method: as §1

[12] = target: T7, OX40 overexpressed on HEK293F cells; assay: as above
Method: as §1

[13] = target: T9, GITR overexpressed on HEK293F cells (UniProt Q9Y5U5 26-241, limits assumed); assay: as above
T9 construct: whole, on cells
T9 sequence (looked up): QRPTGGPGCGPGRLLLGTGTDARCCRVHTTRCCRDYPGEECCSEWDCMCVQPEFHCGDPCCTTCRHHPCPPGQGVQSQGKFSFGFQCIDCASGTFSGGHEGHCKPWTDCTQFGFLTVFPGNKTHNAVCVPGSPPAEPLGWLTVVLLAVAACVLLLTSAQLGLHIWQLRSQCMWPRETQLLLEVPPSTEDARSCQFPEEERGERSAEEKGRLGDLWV
Method: as §1

[14] = target: T1, CD95; assay: flow cytometry, HEK293F cells expressing the receptor, antibody 100 nM [Cont.]
Method: as §1

[15] = target: T2, CD120a; assay: as above
Method: as §1

T6 sequence (P25942 21-277 limits assumed): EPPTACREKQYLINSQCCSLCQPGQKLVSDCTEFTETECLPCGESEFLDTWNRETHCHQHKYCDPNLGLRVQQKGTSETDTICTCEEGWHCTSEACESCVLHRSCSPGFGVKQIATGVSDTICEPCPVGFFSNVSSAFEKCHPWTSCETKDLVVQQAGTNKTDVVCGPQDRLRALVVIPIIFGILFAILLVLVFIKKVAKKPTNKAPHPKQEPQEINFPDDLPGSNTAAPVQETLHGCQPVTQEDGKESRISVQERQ

B1: AG10059 (antibody, human IgG4 S228P, kappa, V domains shown)
VH: EVQLVESGGGLVQPGGSLRLSCAASGYSITSGHYWAWIRQAPGKGLEWVSSISGYGSTTYYADSVKGRFTISRDNSKNTLYLQLNSLRAEDTAVYYCARGGSDAVLGDWFAYWGQGTLVTVSS
VL: DIQLTQSPSSLSASVGDRVTITCRASQGIGSFLAWYQQKPGKAPKLLIYDASNLETGVPSRFSGSGSGTDFTLTISSLQPEDFATYYCQQGYYLWTFGQGTKVEIKR
binding result [1]: no binding (tested: 100 nM (text paragraph 226))
binding result [2]: no binding (tested: 100 nM (text paragraph 226))
binding result [3]: no binding (tested: 100 nM (text paragraph 220))
binding result [4]: no binding (tested: 100 nM (text paragraph 220))

Kd [5]: 0.3 nM
Mean [8]: 9300
Mean [9]: 189000
Mean [14]: 5370
Mean [15]: 8070
B2: AG10058 (antibody, human IgG4 S228P, kappa, V domains shown)
VH: EVQLVESGGGLVQPGGSLRLSCAASGFSLSTSGVGVGWIRQAPGKGLEWLALIDWDDDKYYSPSLKSRLTISRDNSKNTLYLQLNSLRAEDTAVYYCARGGSDTVLGDWFAYWGQGTLVTVSS
VL: B1 VL with G28S, I29V, G30S, S31P, F32Y, N53S, T56S, Y93S
binding result [6]: no binding (tested: 100 nM (text paragraph 226))
binding result [7]: no binding (tested: 100 nM (text paragraph 226))
binding result [10]: no binding (tested: 100 nM (text paragraph 226))
binding result [11]: no binding (tested: 100 nM (text paragraph 226))
binding result [12]: no binding (tested: 100 nM (text paragraph 226))
binding result [13]: no binding (tested: 100 nM (text paragraph 226))
